Reference: paper PMC2148462

How the values were obtained:
[1] = molecular target: MBS (myosin-binding subunit of myosin phosphatase), endogenous in MDCK cells (dog (endogenous in MDCK)); assay: co-IP
[2] = molecular target: GST-moesin (1–323 aa) (human) (UniProt P26038); assay: pull-down
[3] = molecular target: HA-full-length moesin (1–577 aa) (mouse) (UniProt P26041); assay: pull-down
Chain of UniProt P26041 (P26041 whole entry, the tested form may be a part): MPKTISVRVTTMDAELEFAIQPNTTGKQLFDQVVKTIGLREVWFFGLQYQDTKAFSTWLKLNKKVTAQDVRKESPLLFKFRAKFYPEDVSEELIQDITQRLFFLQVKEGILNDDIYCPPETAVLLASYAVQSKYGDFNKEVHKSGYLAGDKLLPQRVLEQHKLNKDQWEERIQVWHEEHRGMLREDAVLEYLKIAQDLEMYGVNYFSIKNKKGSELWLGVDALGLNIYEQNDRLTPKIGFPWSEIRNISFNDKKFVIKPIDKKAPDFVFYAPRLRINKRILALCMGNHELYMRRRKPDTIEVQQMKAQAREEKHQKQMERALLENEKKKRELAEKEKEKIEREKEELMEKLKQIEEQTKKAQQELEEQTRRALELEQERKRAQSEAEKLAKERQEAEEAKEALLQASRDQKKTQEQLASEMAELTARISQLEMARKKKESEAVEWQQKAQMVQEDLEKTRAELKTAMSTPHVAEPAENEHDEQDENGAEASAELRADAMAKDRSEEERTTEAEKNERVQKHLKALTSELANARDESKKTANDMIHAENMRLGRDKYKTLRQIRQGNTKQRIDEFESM

Chain of UniProt P26038 (P26038 1-323): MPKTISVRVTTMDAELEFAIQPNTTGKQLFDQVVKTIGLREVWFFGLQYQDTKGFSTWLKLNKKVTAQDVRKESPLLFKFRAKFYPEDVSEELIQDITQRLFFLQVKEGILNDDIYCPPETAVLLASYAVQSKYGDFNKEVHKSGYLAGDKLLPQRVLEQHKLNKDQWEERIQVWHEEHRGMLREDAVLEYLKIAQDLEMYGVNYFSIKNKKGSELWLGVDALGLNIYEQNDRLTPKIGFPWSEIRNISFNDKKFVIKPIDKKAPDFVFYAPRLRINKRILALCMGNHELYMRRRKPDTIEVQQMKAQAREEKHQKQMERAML

percent of total moesin recovered with immunoprecipitated MBS [1] [%]	stoichiometry N (moesin per MBS) [1]	Kd [2] [nM]	stoichiometry N [2]	Kd [3] [nM]	Substance
0.5	0.33				moesin, endogenous in MDCK cells (natural protein)
		260	0.4	1230	recombinant full-length rat MBS (1–976 aa), myosin-binding subunit of myosin phosphatase (natural protein)
